One molecule from paper doi:10.1101/2023.07.05.547778 (bioRxiv, 2023) can be followed below.

The target in assay [1] is T1, biotin-GGS-APDTRPAPG (N-terminally biotinylated synthetic MUC1 VNTR peptide).
T1 chain: Biotin-GGSAPDTRPAPG
Kind of assay: SPR. (SPR reads the build-up and loss of mass on a sensor chip optically.)

Assay [2] addresses T2, APDTRPAPG (synthetic MUC1 epitope peptide without N-terminal biotin or linker).
T2 chain: APDTRPAPG
The experiment in a line: crystal structure.

Where no end group is shown, it is not given here. The star is where a group is joined. Biotin = O=C1N[C@H]2[C@H](CS[C@H]2CCCCC(=O)*)N1

B1: recombinant 139H2 Fab fragment (Fab, V domains shown)
VH: QVQLQQSGAELVKPGASVKLSCKASGYTFTNYYMYWVLQRPGQGLEWIGEINPSNGGTTFNEKFKNKATLTVDKSSSTAYMQLNSLTSEDSAVYYCTRSRYGNYVNYGMDYWGQGTSVTVSS
VL: DIVMSQSPSSLAVSVGEKVTMSCKSSQSLLYSNTQKNYLAWYQQKPGQSPKLLIYWASTRESGVPDRFTGSGSGTDFTLTISSVKAENLAVYYCQQYYRYPPTFGGGTKLELK
Take B1: the affinity in assay [1], expressed as Kd, was 4.5 µM. In addition, in assay [2], the binding result is listed as “binds”.

By Kd is commonly meant the equilibrium constant for the complex coming apart. Read a low Kd as tighter binding.
